Assay: soluble on expression in E. coli; label from the status in PepcDB or PDB records

Sequence | soluble on expression in E. coli
MGSDKIHHHHHHMAGMQIQGMQIESIDIQNYRLFKQASLNKLSRLAVFVGENGAGKSTIFDVFSFLKDSLAQNAAKAVARRGGFKELVSRGTEGPISITLKFRETGGRLATYELSVAFEGGRVVVDREVLKFRRGQRGQPWHFVDFSRGRGTAVTNEAMYGKPGVKVERKEYILDEPTVLAIKGLGQFKEFRVVSEFRNLIENWHITDFHIADARPSAEEGYAEHLSTRGDNVAQVAQFLYDHHPDRFNNILDAMKRRIPGVEKVEAKPTEDGRLVLRFQDGAFKDPFIARYVSDGTIKMFAYLVLLHDPNPFPLLAVEEPENQLYPELLQELAEEFRDYARRGGQVFISTHSPEFMNGLYLDEIYWLSKKDGYSTIYRGADSEVLKRLVAEGDHPGALWRQGVFKGAW | not soluble
MGSDKIHHHHHHMIGKRFFQTTSKKIAFAFDIDGVLFRGKKPIAGASDALKLLNRNKIPYILLTNGGGFSERARTEFISSKLDVDVSPLQIIQSHTPYKSLVNKYSRILAVGTPSVRGVAEGYGFQDVVHQTDIVRYNRDIAPFSGLSDEQVMEYSRDIPDLTTKKFDAVLVFNDPHDWAADIQIISDAINSENGMLNTLRNEKSGKPSIPIYFSNQDLLWANPYKLNRFGQGAFRLLVRRLYLELNGEPLQDYTLGKPTKLTYDFAHHVLIDWEKRLSGKIGQSVKQKLPLLGTKPSTSPFHAVFMVGDNPASDIIGAQNYGWNSCLVKTGVYNEGDDLKECKPTLIVNDVFDAVTKTLEKYA | not soluble
MGSDKIHHHHHHMSPKTDIAEVNQESLYRIFTIPEAPDSTLGKIEKHLSENLMGFLGEHIVAREKPLQEIERDFDKSQIPEEPAFVSDHTEFLLDKLVAHSVHTASPRFIGHMTSALPYFLLPLAKLMVGLNQNLVKIETSKAFTPLERNVIGMMHHLVYQQDAPFYNRWMHSAQHSLGAFCSGGTIANMTALWVARNRLLQADGDFAGISADGLAAGLQHYGYSKLTVVVSERGHYSLSKAADVLGIGRRNLVSVATDSDNRIRIDELRKTCEKIAKEGGKVLALVGVAGTTETGHIDPLDEMATVAEEVDAHFHVDAAWGGATLLSEQHRPLLAGIERADSVTIDAHKQMYVPMGAGLVLFKNPALVKSIEYHAEYIIRQGSKDLGSHTMEGSRAGMAMMVFSAMHVIGRRGYELLINNSIDKARYFSKLISEQDDFEVITEPELCILTYRFVPIKVKTVLDKATPEQLARLTPHLNALTRYIQKRQRETGQSFVSRTKLTPAQYHHEPTVVFRVVLANPLTTNEMLQEVLCEQRKIAAKATSLRGALHTEMRELGMLI | not soluble
AEVPLPQLRAYTVDASWLQPMAPLQIADHTWQIGTEDLTALLVQTPDGAVLLDGGMPQMASHLLDNMKARGVTPRDLRLILLSHAHADHAGPVAELKRRTGAKVAANAESAVLLARGGSDDLHFGDGITYPPANADRIVMDGEVITVGGIVFTAHFMAGHTPGSTAWTWTDTRNGKPVRIAYADSLSAPGYQLQGNPRYPHLIEDYRRSFATVRALPCDVLLTPHPGASNWDYAAGARAGAKALTCKAYADAAEQKFDGQLAKETAGAR | soluble
SNTPSAEADWSPGLELHPDYKTWGPEQVCSFLRRGGFEEPVLLKNIRENEITGALLPCLDESRFENLGVSSLGERKKLLSYIQRLVQIHVDTMKVI | soluble
MGSDKIHHHHHHENLYFQGMTLSITSNFDAGAIDVVSCERADAIRLRVRGDNRSEFAQWFYFRLTGARGERCVMTFENANDCAYPAGWRDYRAVASYDRVNWFRVPTSYDGQMLTIDHTPEFDSIHYAYFEPYSEERHSEFLGAVQQMPQASVVELGRTVEGRPMSLVVLGTPDEAGAAKKKVWIIARQHPGESMAEWFIEGLVKRLVGWGDWSGDPVARKLYDHATFYIVPNMNPDGSVHGNLRTNAAGANLNREWMEPDAERSPEVLVVRDAIHAIGCDLFFDIHGDEDLPYVFAAGSEMLPGFTEQQRVEQSAFIDSFKRASPDFQDEHGYPPGKYREDAFKLASKYIGHRFGCLSLTLEMPFKDNANLPDEHIGWNGARSASLGAAMLGAILEHVRAFA | soluble
MGSDKIHHHHHHMIIEELHIVNFKSIAAADCRFSPKVNCLVGNNGMGKTNLLDALHFLSFCRSHLSVPDNMVVRHGEEMALLQGLYRDESGDGIELLLSIRPGKHKVLRRNKKEYERLSDHIGRFPLVIVSPQDYQLILGGSDERRRFMDQQLCQQDPRYLSALIQYNRHLQQRNTMLKQDRHDDALMDVLELQMGSYAAEICNKRSRFIEDFLPVFNDLYSDISGSAEKVSLSYRSHLADGIPLEELLRRSRPKDYLLGFSSCGVHKDELEMLLGGVLIRKIGSEGQNKTFLISMKLAQFRHQQLHGDETPILLLDDIFDKLDATRVERIIRLVGGNGFGQIFITDTNRKNLDEIIASWSEDYRLFKIENGQIFQ | not soluble
MGSDKIHHHHHHMMTLTVEYYFTHPQDKLGMYASDPEDNSQEHGHEFAELVIVEEGHGLHVINGRPLYIQQGDVFYVQPGDVHYYDELGTLKLINVLINPAVAFGYLQQMEGLLQQLSAQRAACYGWLAPETRSYCRELVEKIFSPALRAADNTPLRESLFFQLVTTILTAESEAEYSSTRYKLHKLLTWLQEHCFEEHNWQQLAEQFHLTTRTAFRHIKEATGLTPDNYLKRLRLVSARVKLRETEMTITEVAYLCGFANSNHFTTLYKKVFGLTPSADRRRPPG | not soluble
MSLTVRLRPHHLLCMLTYIGKGYTSGFVENYDRVAFRLNAGEDIELVEGADDVCEGLLCESHAHCFNDGIVQRDETARLSVSTLLGETLIAGKRLRVTPDFLAKMRLAFAAGDIRQACRGCQWIKLCDRIAASGFAGVKIGVPSQVVPKDATRHPMLRPKYGPSGRKLEGHHHHHH | not soluble
MKKQNPWIYLNEEEKNQILNFSESYKKFISKFKTEREVTAYALDKAKKLGFINAEEKKNLMPGDKIFYTCREKSVAFAIIGKNPIEDGMNFIVSHTDSPRLDAKPSPISEENELTFIKTNYYGGIKKYQWLSTPLSIRGVVFLKNGEKVEINIGDNENDPVFVIPDILPHLDRKIQRNKKSDEIVEGENLKILIGSLPIETKEKNKVKLATLQLIKEKYKIEEEDFVSSEIEIVPAGTAKDVGFDKALIGAYGQDDKICVFTSLESIFDLEETPNKTAICFLVDKEEIGSTGSTGLDSRYLEYFVSDMIFKIKKSEYNNLHVQKALWNSKSISADVCAAINPLFSSVHDEQNAPQLGYGIPIMKYTGHGGKSMASDADAELVSYIRQLLNKNNIAWQVATLGKVEEGGGGTVAKFLAGYGIRTIDMGPAVISMHSPMEITSKFDLYNAYLAYKAFYRE | soluble
MKFIQNLTKIHQSTSHMAHAHRSDSAVDSQVASTLREDTVARFSMLMKHPRSLARPTVTWRPPSLKLVGLHSTISPQPHLVASISRRRIGPSVKARLKGFGVRQQPAYLMSVRISDSKSNNVSFEHAEQWMLQLVGPQYAECIHMITDHGQCPVFVWIVGGDFQPLPSPASMFQTFQAAA | not soluble
DMIVRQAGPADAAAMSAVLHPILTGWNSARSGDAETVLTRYIDDPDRLSCAVACEGERILGFQSLKLARAGNVYDLPAGWGIIGTYVAGDAGRRGIGRALFTETLAAARRAGLAHIDATIGADNAQGLPYYSALGFQTWRELDG | not soluble
MSLSQPNFYQRTHIPYTAYTPEIFQEFVDDYIDSLNSSFVPVKGIHEEQVRDEAVKLYNQLSDSLGVHRPPFPNPRVKTMVFTPFISMVGVTGSMGPFFCEFTLNGDLLPINYPATYTHELAHLLGISSEAEANFYAYQVCTRSQIKGIRFSGYFSILNHVLGNARRLLSEKEYADIINRIRPEIIELAKKNQEYWMAKYSPLIGDVQNWIYDLYLKGNKIESGRKNYSEVIGLLISYQVWKAKTASDEGHHHHHH | soluble
AEHSHESTLVQAGERIHITAQGVSAIETIDTRTISDAWQYRHLVVQNRPLTEVLDELNRHRRGHILYDRAQLQGIDMAVVLPLDDTDRALQLLVDSLPMIRIRTLTPYLVLVDLAPA | not soluble
MGSDKIHHHHHHMRIVFVGTPEFAAEILEHLIKNGFNVVGVVTQPDKPRGRGRKVAPTPVKAVAEKHEVPFIQPESINKKEALEFLRSVRPDVIIVASYGKILGEKVLSLPRLGCYNIHPSLLPKYRGASPIQRVLENGEERTGVTIYKMVKELDAGPIALQKEISVDPFETFDQLEKRLIELSKEMLIEFLEKLKTGNIELKEQDHSRATYAPMIKKEDLIVDFSKDAESVKNKIRAYDSRPGARAFLGNVEVKLFGVTAIDSSGDEPGLINYIDREGAWIGTGDGKVKVRYIQFPGKKKMTFWEAKNGRLIIEGMRFERRYES | not soluble
MSDQEDKEVPDVEVDYSKYDEDSVPIPEKDIEESHPGRPDLDYDETPVGPAPTECTEEKND | not soluble
MGHHHHHHSHAESHLQSSLITASQFFEIWLHFDADGSGYLEGKELQNLIQELQQARKKAGLELSPEMKTFVDQYGQRDDGKIGIVELAHVLPTEENFLLLFRCQQLKSCEEFMKTWRKYDTDHSGFIETEELKNFLKDLLEKANKTVDDTKLAEYTDLMLKLFDSNNDGKLELTEMARLLPVQENFLLKFQGIKMCGKEFNKAFELYDQDGNGYIDENELDALLKDLCEKNKQDLDINNITTYKKNIMALSDGGKLYRTDLALILCAGDN | soluble
MITPVSSFSIDDLLRGHSNEIQRILKLDQTSPTPQSSSDEGSEKSSISVMSVPLTNELTPTITPALSDQLWLAAAAFPIEHSLLLAQRNGVFPGFWSTADQIRLSNATKAYRRLRLECSRRKARTVFSDQQLQGLERRFESQRYLSTPERIELANALNLSETQVKTWFQNRRMKHKKVVRKDDNSVDDDNGNDNESE | not soluble
MAHHHHHHMSEARQIQSMIDFIEREAQEKADELNSAAQEEYDVEKMRLVEAEKVKVRANNEQKLKQVDVGRRVARANFSKAQRLRIMEAQSNIVEQLKENIKTKLMAFVKNTDSYKKLLVSILHEALSAVRTDAIVYTCKNDEPIVTGMLSELEQWYLKTVGTRVSIRMGKEYLNAEEALGGVVVKSHDGHIVCNWTLSSRMRNCVNDQLPTIRYYLFNPESSI | not soluble
MRDAQRPDLSTTFTVLLAGGRGSRLHELTSRECKPALPFAGPRRIVDFTLANAARSGLTRMIVATQYRPETLAHHLESRWASRFAGGSLRLREGTAVTGSPQGYGGTAAAVAANLAELQSEGVRELVVLAADHVYEMDYADMVAAHRASGASATVAVDTVPTDRASEFGVVRTSEGGRIESFLEKPAVVPADPAIPGRAQVSMGIYVFDLDWLASVLRIIPGATQDFGHDILPLAVALGEAHAYRVPGDNFYWRDVGTLDAYRLAQLEFQTGEAPCALPPRIAASEHEMKAATGELIQFAFRMQTGGIALHSPRLGGDLPGRWTMLDESVLLPGARVAPGVRLTRTIVAPGTSVPAGLVIGEDPDEDARWFRRTEEGTVLVTTPMLARRAADRGRLVAPFADSRMGRSALEHHHHHH | not soluble
MTEAEILRLIRRVSGISQQADEQTTQPDSVTAENYARVVAEVMRRDGIQLNDADMRDIRIRVLEMLAYNRRVELYREKEKITYHWKKPERLRR | not soluble
MSVSRYPVAIAGAGPAGSALALALQAQGVEALLLDRPLAQPFRIGESATPDVAGLLERLGAGHALDGQPGYHGNLSLWGSESPRLDHFLYRGRGHGWHLDRAGFDHALRQEAMARGVAVLGESGVDAIAPAAGGWRLRVRGLGEVEARVVVDAGGRRSPLAARLGISRCRLDRLQALACRVDGPGQLSGYSLVESAPYGWWYAAALPDGRALATLMTDQDLARELGLEHPANFLAAWRATRLLSERLPPPQRIDAAHAFAAHSGCVARAAGPGWICVGDALMGLDPLTSSGIACALGDALAAAPAIVAMLDGELAPARAYAKRADDCFRRYLAERRRHYRQENRWPEQPFWQRRAFSPAALAVPALEHHHHHH | not soluble
ASDHQTQAGKPQPLNPKIIIFEQENFQGHSHELSGPCPNLKETGMEKAGSVLVQAGPWVGYEQANCKGEQFVFEKGEYPRWDSWTSSRRTDSLSSLRPIKVDSQEH | soluble
